Reference: article PMC3448639

How the values were obtained:
Conditions in all cases: glycan lost; control: wild type
[1] = selective uptake of [3H]COE from HDL
[2] = [3H]cholesterol release from cells to HDL
[3] = flow cytometry, extracellular-domain antibody
[4] = cell surface biotinylation, immunoblot densitometry
[5] = cholesterol oxidase sensitivity, cholestenone by TLC

B1: SR-BI (scavenger receptor class B type I; CLA-1): T175A (protein)
parent chain: MGCSAKARWAAGALGVAGLLCAVLGAVMIVMVPSLIKQQVLKNVRIDPSSLSFNMWKEIPIPFYLSVYFFDVMNPSEILKGEKPQVRERGPYVYREFRHKSNITFNNNDTVSFLEYRTFQFQPSKSHGSESDYIVMPNILVLGAAVMMENKPMTLKLIMTLAFTTLGERAFMNRTVGEIMWGYKDPLVNLINKYFPGMFPFKDKFGLFAELNNSDSGLFTVFTGVQNISRIHLVDKWNGLSKVDFWHSDQCNMINGTSGQMWPPFMTPESSLEFYSPEACRSMKLMYKESGVFEGIPTYRFVAPKTLFANGSIYPPNEGFCPCLESGIQNVSTCRFSAPLFLSHPHFLNADPVLAEAVTGLHPNQEAHSLFLDIHPVTGIPMNCSVKLQLSLYMKSVAGIGQTGKIEPVVLPLLWFAESGAMEGETLHTFYTQLVLMPKVMHYAQYVLLALGCVLLLVPVICQIRSQVGAGQRAARADSHSLACWGKGASDRTLWPTAAWSPPPAAVLRLCRSGSGHCWGLRSTLASFACRVATTLPVLEGLGPSLGGGTGS
[1]
  other: transport activity: decreases
[2]
  other: free cholesterol efflux: decreases
[3]
  localisation_or_trafficking: decreases
[4]
  localisation_or_trafficking, percent_of_wt: decreases, more than 50% less vs 100
[5]
  other: plasma membrane free cholesterol redistribution: decreases
